B1: chimeric prokineticin 21 (exons 1 and 2 of prokineticin 2, exon 3 of prokineticin 1) (ligand)
chain: AVITGACDKDSQCGGGMCCAVSIWVKSIRICTPMGKLGDSCHPLTRKVPFFRKRKHHTCPCLPNLLCSRFPDGRYRCSMDLKNINF
B2: chimeric prokineticin 12 (exons 1 and 2 of prokineticin 1, exon 3 of prokineticin 2) (ligand)
chain: AVITGACERDVQCGAGTCCAISLWLRGLRMCTPLGREGEECHPGSHKVPFFGRRMHHTCPCLPGLACLRTSFNRFICLAQK
B3: recombinant refolded human prokineticin 1 (unlabeled), 6×His-tagged (ligand)
chain: AVITGACERDVQCGAGTCCAISLWLRGLRMCTPLGREGEECHPGSHKVPFFRKRKHHTCPCLPNLLCSRFPDGRYRCSMDLKNINFHHHHHH
B4: 125I-prokineticin 1 (iodinated recombinant human prokineticin 1) (ligand)
chain: AVITGACERDVQCGAGTCCAISLWLRGLRMCTPLGREGEECHPGSHKVPFFRKRKHHTCPCLPNLLCSRFPDGRYRCSMDLKNINFHHHHHH
modifications: 125I label by the iodogen method; iodinated residue(s) not stated
B5: recombinant refolded human prokineticin 2 (unlabeled), 6×His-tagged (ligand)
chain: AVITGACDKDSQCGGGMCCAVSIWVKSIRICTPMGKLGDSCHPLTRKVPFFGRRMHHTCPCLPGLACLRTSFNRFICLAQKHHHHHH

How the values were obtained:
[1] = biological target: prokineticin receptor(s) of guinea pig ileum (ileal membranes; ileal longitudinal smooth muscle) (guinea pig); assay: cell-based or functional assay
[2] = biological target: prokineticin receptor(s) of guinea pig ileum (ileal membranes; ileal longitudinal smooth muscle) (guinea pig); assay: competition radioligand binding on guinea pig ileal membranes, filtration; displaced tracer 125I-prokineticin 1 (20 pM)
[3] = biological target: prokineticin receptor(s) of guinea pig ileum (ileal membranes; ileal longitudinal smooth muscle) (guinea pig); assay: displacement of 125I-prokineticin 1 (20 pM) from guinea pig ileal membranes, two-site model, low-affinity site
[4] = biological target: prokineticin receptor(s) of guinea pig ileum (ileal membranes; ileal longitudinal smooth muscle) (guinea pig); assay: displacement of 125I-prokineticin 1 (20 pM) from guinea pig ileal membranes, two-site model, high-affinity site
[5] = biological target: prokineticin receptor expressed endogenously on M2A7 melanoma cells (ATCC CRL-2500); assay: cell-based or functional assay
[6] = biological target: prokineticin receptor(s) of guinea pig ileum (ileal membranes; ileal longitudinal smooth muscle) (guinea pig); assay: saturation binding of 125I-prokineticin 1 to guinea pig ileal membranes, Scatchard analysis, two-site model, low-affinity site
[7] = biological target: prokineticin receptor(s) of guinea pig ileum (ileal membranes; ileal longitudinal smooth muscle) (guinea pig); assay: saturation binding of 125I-prokineticin 1 to guinea pig ileal membranes, two-site model, high-affinity site
[8] = biological target: prokineticin receptor(s) of guinea pig ileum (ileal membranes; ileal longitudinal smooth muscle) (guinea pig); assay: saturation binding of 125I-prokineticin 1 to guinea pig ileal membranes, Scatchard analysis, two-site model, high-affinity site
[9] = biological target: prokineticin receptor(s) of guinea pig ileum (ileal membranes; ileal longitudinal smooth muscle) (guinea pig); assay: saturation binding of 125I-prokineticin 1 to guinea pig ileal membranes, two-site model, low-affinity site
[10] = biological target: prokineticin receptor(s) of guinea pig ileum (ileal membranes; ileal longitudinal smooth muscle) (guinea pig); assay: displacement of 125I-prokineticin 1 (20 pM) from guinea pig ileal membranes, high-affinity site
[11] = biological target: prokineticin receptor(s) of guinea pig ileum (ileal membranes; ileal longitudinal smooth muscle) (guinea pig); assay: displacement of 125I-prokineticin 1 (20 pM) from guinea pig ileal membranes, low-affinity site

time constant to midway contraction of ileal strips [1] | IC50 (read off the curve) [2] | EC50 of calcium mobilization in M2A7 melanoma cells (FLIPR) [5] | ED50 of contraction of guinea-pig ileum longitudinal muscle [1] | further results | Binder
40 min |  |  |  | EC50 of ileal contraction, fold against prokineticin 1 or prokineticin 2 [1]: 8 fold | B1
40 min |  |  |  |  | B2
15 min | 5 nM | 12 nM | 0.46 nM | Ki [3]: 1.5 nM; Ki [4]: 0.008 nM | B3
 |  |  |  | Kd [6]: 0.227 nM; Bmax (fmol/mg of protein) [7]: 7.8; Kd [8]: 0.005 nM; Bmax (fmol/mg of protein) [9]: 26.4 | B4
15 min | 4 nM | 21 nM | 0.9 nM | Ki [10]: 0.0042 nM; Ki [11]: 1.22 nM | B5

Reference: patent US20050074758A1
